From doi:10.1101/2021.11.04.467245 (bioRxiv, 2021)

T1: TwinStrep-BICD2 WT (mouse), Q921C5
T1 chain: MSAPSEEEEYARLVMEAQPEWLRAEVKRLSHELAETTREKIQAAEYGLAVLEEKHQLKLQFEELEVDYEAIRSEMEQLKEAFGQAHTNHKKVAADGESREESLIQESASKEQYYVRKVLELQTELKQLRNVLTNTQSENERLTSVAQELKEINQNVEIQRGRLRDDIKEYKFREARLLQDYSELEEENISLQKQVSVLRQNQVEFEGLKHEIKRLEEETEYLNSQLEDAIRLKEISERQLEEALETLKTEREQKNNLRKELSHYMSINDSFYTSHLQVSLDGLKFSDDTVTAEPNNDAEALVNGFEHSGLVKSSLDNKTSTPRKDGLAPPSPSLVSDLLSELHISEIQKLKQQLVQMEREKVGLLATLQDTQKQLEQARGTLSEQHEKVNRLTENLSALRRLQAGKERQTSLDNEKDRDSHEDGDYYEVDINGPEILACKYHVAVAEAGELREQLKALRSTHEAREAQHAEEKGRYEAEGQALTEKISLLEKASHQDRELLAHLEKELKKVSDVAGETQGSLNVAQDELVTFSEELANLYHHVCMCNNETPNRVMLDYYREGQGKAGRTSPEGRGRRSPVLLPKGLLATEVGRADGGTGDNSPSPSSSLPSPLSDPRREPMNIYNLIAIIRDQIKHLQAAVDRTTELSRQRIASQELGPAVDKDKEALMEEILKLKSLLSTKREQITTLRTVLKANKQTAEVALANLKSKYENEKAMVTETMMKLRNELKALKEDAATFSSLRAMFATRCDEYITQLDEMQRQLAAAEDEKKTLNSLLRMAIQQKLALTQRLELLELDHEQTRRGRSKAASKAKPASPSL


Legend:
[1] = target: T1, TwinStrep-BICD2 WT (mouse), Q921C5; test: SEC-MALS; conditions: remark: other sources report otherwise
SEC-MALS = target: the molecule itself; test: SEC-MALS

Row | stoichiometry N [1] | Binder | stoichiometry N (SEC-MALS)
1 | 2 | TwinStrep-BICD2 WT, Q921C5 1-820 (natural protein) MSAPSEEEEYARLVMEAQPEWLRAEVKRLSHELAETTREKIQAAEYGLAVLEEKHQLKLQFEELEVDYEAIRSEMEQLKEAFGQAHTNHKKVAADGESREESLIQESASKEQYYVRKVLELQTELKQLRNVLTNTQSENERLTSVAQELKEINQNVEIQRGRLRDDIKEYKFREARLLQDYSELEEENISLQKQVSVLRQNQVEFEGLKHEIKRLEEETEYLNSQLEDAIRLKEISERQLEEALETLKTEREQKNNLRKELSHYMSINDSFYTSHLQVSLDGLKFSDDTVTAEPNNDAEALVNGFEHSGLVKSSLDNKTSTPRKDGLAPPSPSLVSDLLSELHISEIQKLKQQLVQMEREKVGLLATLQDTQKQLEQARGTLSEQHEKVNRLTENLSALRRLQAGKERQTSLDNEKDRDSHEDGDYYEVDINGPEILACKYHVAVAEAGELREQLKALRSTHEAREAQHAEEKGRYEAEGQALTEKISLLEKASHQDRELLAHLEKELKKVSDVAGETQGSLNVAQDELVTFSEELANLYHHVCMCNNETPNRVMLDYYREGQGKAGRTSPEGRGRRSPVLLPKGLLATEVGRADGGTGDNSPSPSSSLPSPLSDPRREPMNIYNLIAIIRDQIKHLQAAVDRTTELSRQRIASQELGPAVDKDKEALMEEILKLKSLLSTKREQITTLRTVLKANKQTAEVALANLKSKYENEKAMVTETMMKLRNELKALKEDAATFSSLRAMFATRCDEYITQLDEMQRQLAAAEDEKKTLNSLLRMAIQQKLALTQRLELLELDHEQTRRGRSKAASKAKPASPSL | –
2 | – | TwinStrep-BICD2 S102D (natural protein) MSAPSEEEEYARLVMEAQPEWLRAEVKRLSHELAETTREKIQAAEYGLAVLEEKHQLKLQFEELEVDYEAIRSEMEQLKEAFGQAHTNHKKVAADGESREEDLIQESASKEQYYVRKVLELQTELKQLRNVLTNTQSENERLTSVAQELKEINQNVEIQRGRLRDDIKEYKFREARLLQDYSELEEENISLQKQVSVLRQNQVEFEGLKHEIKRLEEETEYLNSQLEDAIRLKEISERQLEEALETLKTEREQKNNLRKELSHYMSINDSFYTSHLQVSLDGLKFSDDTVTAEPNNDAEALVNGFEHSGLVKSSLDNKTSTPRKDGLAPPSPSLVSDLLSELHISEIQKLKQQLVQMEREKVGLLATLQDTQKQLEQARGTLSEQHEKVNRLTENLSALRRLQAGKERQTSLDNEKDRDSHEDGDYYEVDINGPEILACKYHVAVAEAGELREQLKALRSTHEAREAQHAEEKGRYEAEGQALTEKISLLEKASHQDRELLAHLEKELKKVSDVAGETQGSLNVAQDELVTFSEELANLYHHVCMCNNETPNRVMLDYYREGQGKAGRTSPEGRGRRSPVLLPKGLLATEVGRADGGTGDNSPSPSSSLPSPLSDPRREPMNIYNLIAIIRDQIKHLQAAVDRTTELSRQRIASQELGPAVDKDKEALMEEILKLKSLLSTKREQITTLRTVLKANKQTAEVALANLKSKYENEKAMVTETMMKLRNELKALKEDAATFSSLRAMFATRCDEYITQLDEMQRQLAAAEDEKKTLNSLLRMAIQQKLALTQRLELLELDHEQTRRGRSKAASKAKPASPSL | 2
